Target: Nicotinamide phosphoribosyltransferase (Nampt) (UniProt P43490)
UniProt P43490, sequence (P43490 whole entry, looked up): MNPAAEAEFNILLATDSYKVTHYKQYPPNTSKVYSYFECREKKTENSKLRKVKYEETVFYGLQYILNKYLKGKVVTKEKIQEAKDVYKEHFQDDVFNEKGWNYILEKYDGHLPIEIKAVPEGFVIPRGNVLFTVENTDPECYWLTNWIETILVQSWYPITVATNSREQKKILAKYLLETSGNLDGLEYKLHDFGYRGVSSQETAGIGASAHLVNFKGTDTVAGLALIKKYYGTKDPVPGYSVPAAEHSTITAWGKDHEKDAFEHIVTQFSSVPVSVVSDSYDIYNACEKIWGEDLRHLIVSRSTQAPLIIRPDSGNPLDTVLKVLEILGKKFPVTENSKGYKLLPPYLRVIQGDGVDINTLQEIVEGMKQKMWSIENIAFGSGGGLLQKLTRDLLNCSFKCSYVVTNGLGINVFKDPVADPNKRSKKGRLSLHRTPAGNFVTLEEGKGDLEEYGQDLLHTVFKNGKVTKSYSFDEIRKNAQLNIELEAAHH

Q: Which “Nampt activity (Cyclex Nampt activity assay kit on anti-Nampt immunoprecipitates of lysates from myotubes treated with 500 or 1000 ug/ml Eno1 for 48 hours)” value does the source give for purified recombinant human Eno1 here?
A: Its value is “Eno1 treatment increased Nampt activity”.

Reference: patent US20150359861
